Assay results taken from publication PMC2195798 (The Journal of Experimental Medicine, 2000).
Read-outs that look alike come from different tables or passages of the source.

Columns and labels:
[1] = target: T1, CC chemokine receptor 8 (CCR8) (human, UniProt P51685 1-355); test: radioligand binding
[2] = target: T1, CC chemokine receptor 8 (CCR8); test: radioligand binding; remark: listed apart in the source

T1 sequence (P51685 whole entry): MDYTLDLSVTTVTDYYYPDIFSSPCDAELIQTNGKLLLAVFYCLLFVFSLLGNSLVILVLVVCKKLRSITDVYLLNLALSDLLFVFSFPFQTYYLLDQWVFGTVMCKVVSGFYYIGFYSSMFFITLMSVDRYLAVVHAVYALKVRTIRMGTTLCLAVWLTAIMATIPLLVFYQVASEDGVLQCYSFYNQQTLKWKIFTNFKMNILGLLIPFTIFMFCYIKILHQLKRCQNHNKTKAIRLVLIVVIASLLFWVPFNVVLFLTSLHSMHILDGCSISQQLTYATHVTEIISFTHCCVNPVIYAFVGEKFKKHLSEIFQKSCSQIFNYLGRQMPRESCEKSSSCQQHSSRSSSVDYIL

Binder | IC50 [1] [nM] | IC50 [2] [nM]
MC148 CC chemokine from molluscum contagiosum virus (MCV), processed secreted protein (ligand, molluscum contagiosum virus subtype 1, UniProt Q98314 1-104, looked up) LARRKCCLNPTNRPIPNPLLQDLSRVDYQAIGHDCGREAFRVTLQDGRQGCVSVGNKSLLDWLRGHKDLCPQIWSGCESL | 0.47 | 0.27
viral macrophage inflammatory protein (vMIP)-II encoded by human herpesvirus 8 (HHV8) (ligand, UniProt Q98157 21-94, looked up) GDTLGASWHRPDKCCLGYQKRPLPQVLLSSWYPTSQLCSKPGVIFLTKRGRQVCADKSKDWVKKLMQQLPVTAR | 27.8 | –
I-309 (ligand, human, UniProt P22362 24-96, looked up) KSMQVPFSRCCFSFAEQEIPLRAILCYRNTSSICSNEGLIFKLKRGKEACALDTVGWVQRHRKMLRHCPSKRK | 0.52 | –
